Laboratory results published in US20140220040A1 (ARCA BIOPHARMA, published 2014).

T1: Human LRP6-Fc (R&D Systems), recombinant human LRP6 containing the complete extracellular domain (human, UniProt O75581 20-1370)
T1 construct: Bought protein; also called hLRP6; Fc-antigen; not shown: Fc part of the bought fusion protein
T1 sequence: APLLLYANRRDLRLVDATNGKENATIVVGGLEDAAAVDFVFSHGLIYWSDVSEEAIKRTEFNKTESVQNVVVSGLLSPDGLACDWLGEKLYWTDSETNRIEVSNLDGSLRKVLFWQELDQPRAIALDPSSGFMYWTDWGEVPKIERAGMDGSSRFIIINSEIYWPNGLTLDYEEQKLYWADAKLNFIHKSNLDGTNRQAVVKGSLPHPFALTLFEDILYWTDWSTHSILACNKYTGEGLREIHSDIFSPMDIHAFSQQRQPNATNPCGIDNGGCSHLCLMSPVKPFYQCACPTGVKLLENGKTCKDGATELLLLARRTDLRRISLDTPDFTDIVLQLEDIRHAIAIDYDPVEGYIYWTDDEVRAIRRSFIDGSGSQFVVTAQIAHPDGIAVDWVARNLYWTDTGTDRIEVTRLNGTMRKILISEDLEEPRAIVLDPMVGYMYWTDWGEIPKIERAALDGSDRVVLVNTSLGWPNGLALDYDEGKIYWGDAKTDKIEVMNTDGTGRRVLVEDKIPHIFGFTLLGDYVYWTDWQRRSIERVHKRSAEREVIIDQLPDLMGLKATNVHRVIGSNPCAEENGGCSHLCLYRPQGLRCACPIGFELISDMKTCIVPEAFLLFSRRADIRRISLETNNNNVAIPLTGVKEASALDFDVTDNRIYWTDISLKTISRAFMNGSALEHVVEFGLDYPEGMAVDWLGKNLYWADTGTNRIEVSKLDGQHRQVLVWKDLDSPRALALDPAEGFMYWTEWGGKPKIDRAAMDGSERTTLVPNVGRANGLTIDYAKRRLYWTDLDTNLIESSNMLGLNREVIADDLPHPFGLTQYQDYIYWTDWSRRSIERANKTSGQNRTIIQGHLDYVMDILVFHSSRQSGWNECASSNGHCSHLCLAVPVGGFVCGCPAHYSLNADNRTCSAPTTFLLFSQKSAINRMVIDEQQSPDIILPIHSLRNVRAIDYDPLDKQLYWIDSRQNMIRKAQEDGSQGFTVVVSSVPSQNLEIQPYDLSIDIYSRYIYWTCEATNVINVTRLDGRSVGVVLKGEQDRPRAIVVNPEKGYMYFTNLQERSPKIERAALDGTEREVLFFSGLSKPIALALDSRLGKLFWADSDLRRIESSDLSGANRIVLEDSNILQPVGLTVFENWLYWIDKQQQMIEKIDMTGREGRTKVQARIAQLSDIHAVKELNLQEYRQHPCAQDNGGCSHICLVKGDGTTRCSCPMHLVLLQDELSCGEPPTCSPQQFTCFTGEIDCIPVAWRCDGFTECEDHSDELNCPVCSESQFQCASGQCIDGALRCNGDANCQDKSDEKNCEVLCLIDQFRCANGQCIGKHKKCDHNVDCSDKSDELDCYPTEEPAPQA

T2: LRP6Δ1/4
T2 construct: also called LRP6Del1-4
T2 chain: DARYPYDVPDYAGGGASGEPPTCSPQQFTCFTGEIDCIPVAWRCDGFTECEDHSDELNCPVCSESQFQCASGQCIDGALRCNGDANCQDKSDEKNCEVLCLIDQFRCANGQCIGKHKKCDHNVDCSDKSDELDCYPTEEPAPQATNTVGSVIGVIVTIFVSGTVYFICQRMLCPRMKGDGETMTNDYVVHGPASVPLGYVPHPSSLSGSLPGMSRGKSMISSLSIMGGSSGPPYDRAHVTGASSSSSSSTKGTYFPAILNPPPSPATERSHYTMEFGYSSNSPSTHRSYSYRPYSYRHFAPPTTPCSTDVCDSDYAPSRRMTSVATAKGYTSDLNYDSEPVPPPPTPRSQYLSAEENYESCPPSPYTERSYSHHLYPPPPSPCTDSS

T3: LRP6Δ1-2 propeller domain deletion construct (human, UniProt O75581 629-1613)
T3 construct: Deletion construct of human LRP6 expressed in 293 cells
T3 sequence: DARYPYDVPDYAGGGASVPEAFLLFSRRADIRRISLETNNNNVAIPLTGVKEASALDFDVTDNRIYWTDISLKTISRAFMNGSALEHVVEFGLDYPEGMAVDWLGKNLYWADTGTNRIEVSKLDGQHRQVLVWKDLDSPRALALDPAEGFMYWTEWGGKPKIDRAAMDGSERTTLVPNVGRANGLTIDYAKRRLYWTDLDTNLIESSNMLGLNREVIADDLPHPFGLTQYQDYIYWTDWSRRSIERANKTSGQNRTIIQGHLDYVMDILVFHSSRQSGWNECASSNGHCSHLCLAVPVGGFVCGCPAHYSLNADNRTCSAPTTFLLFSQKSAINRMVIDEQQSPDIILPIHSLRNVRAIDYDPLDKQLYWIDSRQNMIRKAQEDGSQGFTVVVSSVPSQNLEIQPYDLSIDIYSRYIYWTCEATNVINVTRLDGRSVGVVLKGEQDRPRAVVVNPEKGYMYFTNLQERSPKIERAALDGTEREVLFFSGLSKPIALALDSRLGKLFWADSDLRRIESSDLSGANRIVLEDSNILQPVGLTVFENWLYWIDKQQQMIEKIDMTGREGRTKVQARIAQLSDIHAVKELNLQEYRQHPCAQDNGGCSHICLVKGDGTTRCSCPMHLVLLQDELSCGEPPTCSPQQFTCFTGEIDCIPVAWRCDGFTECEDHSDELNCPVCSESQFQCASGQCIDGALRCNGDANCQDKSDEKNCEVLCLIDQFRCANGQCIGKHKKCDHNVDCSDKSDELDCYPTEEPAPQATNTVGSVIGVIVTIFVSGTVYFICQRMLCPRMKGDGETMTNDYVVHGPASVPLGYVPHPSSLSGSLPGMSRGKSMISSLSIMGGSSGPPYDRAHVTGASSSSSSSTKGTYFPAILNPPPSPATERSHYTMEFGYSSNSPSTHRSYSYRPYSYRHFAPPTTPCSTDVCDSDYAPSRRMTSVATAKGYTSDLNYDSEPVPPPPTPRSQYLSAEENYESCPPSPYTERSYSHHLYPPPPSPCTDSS


Legend:
[1] = target: T1, Human LRP6-Fc (R&D Systems), …; assay: SPR (BIAcore), mAb captured on anti-mouse chip, Fc-antigen injected, 1:1 model
Experimental: (§1) Kinetic rate constants (kₐ and kd) were determined using surface plasmon resonance, and affinities (KD) were then calculated from the rate constants (kd/kₐ). Surface plasmon resonance was carried out on a BIAcore system (Biacore International AB, Uppsala, Sweden). Each murine anti-LRP6 mAb sample was diluted 100 fold and captured onto an anti-mouse sensor chip surface. The running buffer contained 10 mM HEPES, 150 mM NaCl, 0.005% Tween-20 and 0.1 mg/ml BSA. Following the capturing step, the Fc-antigen was injected at 45 nM as the highest concentration in a 3-fold dilution series. The association and dissociation phases were monitored for 8 and 60 minutes, respectively. The antigen response data were fit into a 1:1 interaction model.

LRP6Δ1/4 = target: T2, LRP6Δ1/4; assay: FACS on 293 cells transfected with LRP6Δ1/4 [cont.]
Experimental: (§2) To identify the region of LRP6 that is recognized by LRP6 mAbs, a series of LRP6 propeller domain deletion constructs were made (SEQ ID NO: 6-15) and expressed in 293 cells. Binding of anti-LRP6 mAbs was determined by flow cytometry. […] Amino acid sequence alignments of the heavy and light chain variable domains of the anti-LRP6 mAbs disclosed herein are shown in FIGS. 4 and 5, respectively.

[2] = target: T3, LRP6Δ1-2 propeller domain deletion …; assay: flow cytometry on 293 cells expressing the deletion construct
Experimental: as §2

[3] = target: T1, Human LRP6-Fc (R&D Systems), …; assay: SPR (BIAcore): mAb captured on an anti-mouse chip, Fc-antigen injected from 45 nM in 3-fold dilutions, 1:1 fit [cont., panel R]
Experimental: as §1

[4] = target: T1, Human LRP6-Fc (R&D Systems), …; assay: SPR (BIAcore): mAb captured on an anti-mouse chip, Fc-antigen injected from 45 nM in 3-fold dilutions, 1:1 fit. The sheet prints no unit for kd; the unit is from the head of Table 4. [cont., panel R]
Experimental: as §1

[5] = target: T1, Human LRP6-Fc (R&D Systems), …; assay: SPR (BIAcore): mAb captured on an anti-mouse chip, Fc-antigen injected from 45 nM in 3-fold dilutions, 1:1 fit. The sheet prints no unit for ka; the unit is from the head of Table 4. [cont., panel R]
Experimental: as §1

Binder	Kd [1] [nM]	koff [1] [s⁻¹]	kon [1] [M⁻¹ s⁻¹]	binding result (LRP6Δ1/4)	binding result [2]	Kd [3] [nM]	koff [4] [s⁻¹]	kon [5] [M⁻¹ s⁻¹]
anti-LRP6 monoclonal antibody 1433.8 (antibody, V domains shown, Murine hybridoma mAb, protein G purified; also called VH21/VL21) VH: QVQLQQSGAELAKPGASVKMSCKASGYTFTSYWMHWVKQRPGQGLEWIGYINPSTGYTEYNQKFRDKATLTADKSSSTANMQLSSLTSEDSAVYYCTRTAQYYGSPRGYYAMDSWGQGTSVTVSS VL: MTQAAFSNPVTLGTSASISCRSSKSLLHSNGITYLCWFLQKPGQSPQLLIYLMSNLASGVPDRFSSSGSGTDFTLRISRVEAEDVGVYFCAQNLDLPWTFGGGTKLEI	1.68	7.7e-05	45600	–	–	–	–	–
anti-LRP6 monoclonal antibody 135.16 (antibody, V domains shown, Murine hybridoma mAb, protein G purified; also called mAb135.16) VH: QVQLQQSGAELVKPGASVKMSCKAFGYTFTSYPIEWMKQNHGKSLEWIGNFHPYNDNTKYNEKFKGKAKLTVEKSSSTVYLELSRSTSDDSAVYYCARGYSGNYFSAMDYWGQGTSVTVSS VL: DIVMTQSQKFMSTSVGDRVSITCKASQNVRNDVAWYQQKPGQSPKSLIYLASNRHTGVPDRFTGSGSGTDFTLTISNVQSEDLADYFCLQHWNYPYTFGGGTKLEIKR	0.73	1.9e-05	26300	no binding (tested: not stated)	no binding	–	–	–
anti-LRP6 monoclonal antibody 1470.2 (antibody, V domains shown, Murine hybridoma mAb, protein G purified; also called VH22/VL22) VH: DVNLVESGGGLVKLGGSLKLSCAASGFTFSSFYMSWVRQTPEKRLDLVAAINTNGGSTYYSDTVKGRFTISRDNAKNTLYLQMSSLKSEDTALFYCARQPYYGGPMDFWGQGTSVTVSS VL: DIVLTQSPATLSVTPGDSVSLSCRASQSINNNLHWYQQKSHESPRLLIKYASQSISGIPSRFSGSGSGTDFTLSINSVETEDFGMYFCQQSNNWPLTFGAGTKLEL	–	–	–	–	–	3.51	7.3e-05	20800
anti-LRP6 monoclonal antibody 1115.3 (antibody, V domains shown, Murine hybridoma mAb, protein G purified; also called VH16/VL16) VH: DVKLVESGGGLVKLGGSLRLSCAASGFSFSTSYMSWVRQTPEKRLELVAAINLNGGSTYYSDTVKGRFTISRDNAKNTLYLQMSSLKSEDTAFYYCASELAGYGTPFAYWGQGTLVTVSA VL: DIVLTQSPATLSVTPGDSVSLSCKASQSISNNLHWYQQKSHESPRLLIKYTSQSISGIPSRFSGSGSGTDFTLTINNVETEDFGMYFCQQSNSWPLTFGAGTKLEV	1.45	5.34e-05	36800	–	–	–	–	–
anti-LRP6 monoclonal antibody 1903.1 (antibody, V domains shown, Murine hybridoma mAb, protein G purified; also called VH23/VL23) VH: DVNLVESGGGLVKLGGSLKLSCAASGFTFSRFYMSWVRQTPEKRLDLVAAINTNGGSTYYSDTVKGRFTISRDNAKNTLYLQMSSLKSEDTALFYCARQPYYGGPMEFWGQGTSVTVSS VL: DIVMTQSQKFMSTSVGDRVSVTCKASQNVGTNVAWYQQKPGQSPKALIYSASYRYSGVPDRFTGSGSGSDFTLTISNVQSEDLAEYFCQQYNSYPLTFGAGTKLEL	2.79	9.4e-05	33700	–	–	–	–	–
anti-LRP6 monoclonal antibody 1213.2 (antibody, V domains shown, Murine hybridoma mAb, protein G purified; also called VH17/VL17) VH: DVNLVESGGGLVKLGGSLKLSCAASGFTFSSFYMSWVRQTPEKRLDLVATINTNGGSTYYSDTVKGRFTISRDNAKNTLYLQMNSLKSEDTALFYCVRQPYYGGTMDYWGQGTSVTVSS VL: DIVLTQSPATLSVTPGDRVSLSCRASQSINNNLHWYQQKSHESPRLLIKYASQSISGIPSRFSGSGSGTDFTLSINSVETEDFGMYFCQQTNNWPLTFGAGTKLEL	1.07	6.3e-05	58800	–	–	–	–	–
